Assays:
Experiment in all cases: SPR (BIACORE), antibody captured, FcγR as analyte, 25°C
[1] = target: T1, human FcγRIIaH extracellular domain, His-tagged (human, UniProt P12318 34-217)
T1 construct: also called human FcgRIIaH; FcγRIIa (type H); not shown: His-tag added to the C-terminus
T1 sequence: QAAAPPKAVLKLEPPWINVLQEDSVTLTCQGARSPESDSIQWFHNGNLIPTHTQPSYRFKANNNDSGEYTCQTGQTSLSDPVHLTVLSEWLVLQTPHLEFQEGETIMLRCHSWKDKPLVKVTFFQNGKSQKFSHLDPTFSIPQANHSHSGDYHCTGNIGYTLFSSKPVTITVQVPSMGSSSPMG

[2] = target: T2, cynomolgus monkey FcγRIIa2 extracellular domain, His-tagged (cynomolgus monkey)
T2 construct: also called cyno FcgRIIa2; cynoFcγRIIa2; not shown: His-tag added to the C-terminus
T2 chain: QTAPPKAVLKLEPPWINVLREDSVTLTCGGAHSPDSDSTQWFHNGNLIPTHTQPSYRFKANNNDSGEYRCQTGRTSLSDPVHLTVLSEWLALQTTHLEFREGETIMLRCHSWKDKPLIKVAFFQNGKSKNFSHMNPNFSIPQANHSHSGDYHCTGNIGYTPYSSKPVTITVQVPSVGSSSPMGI

[3] = target: T3, human FcγRIIIaV extracellular domain, His-tagged (human, UniProt P08637 17-208)
T3 construct: also called human FcgRIIIaV; not shown: His-tag added to the C-terminus
T3 sequence (P08637 17-208 F176V): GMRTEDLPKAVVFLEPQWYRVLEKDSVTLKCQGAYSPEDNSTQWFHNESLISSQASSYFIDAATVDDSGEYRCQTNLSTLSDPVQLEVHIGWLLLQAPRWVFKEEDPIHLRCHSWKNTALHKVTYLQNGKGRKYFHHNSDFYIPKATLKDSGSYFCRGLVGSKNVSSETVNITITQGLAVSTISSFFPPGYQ

- Kd [1]: 0.2 µM
- Kd [2]: 20 µM
- Kd [3]: 15 µM
B1: M103205H795-MY267/M103202L889-SK1 (antibody, human IgG1, kappa)
heavy: QVTLKESGPVLVKPTETLTLTCTVSGIDLSHDDISWVRQAPGKGLEWVGIISYAGSTYYASWAKGRLTISKDTSKNQVVLTMTNMDPVDTATYYCARGVPAYSHGGDLWGQGTLVTVSSASTKGPSVFPLAPSSKSTSGGTAALGCLVKDYFPEPVTVSWNSGALTSGVHTFPAVLQSSGLYSLSSVVTVPSSSLGTQTYICNVNHKPSNTKVDKKVEPKSCDKTHTCPPCPAPELLIGPSVFLFPPKPKDTLMISRTPEVTCVVVDVSDEDPEVKFNWYVDGVEVHNAKTKPREEQYNSTYRVVSVLTVLHQDWLNGKEYKCKVSNKALPKPIEKTISKAKGQPREPQVYTLPPSREEMTKNQVSLTCLVKGFYPSDIAVEWESNGQPENNYKTTPPVLDSDGSFFLYSKLTVDKSRWQQGNVFSCSVMHEALHNHYTQKSLSLSP
light: DIVMTQSPATLSLSPGERATLSCTSSQSVYHANWLSWFQQKPGQPPKLLIYWASTLAYGVPSRFSGSGSGTDFTLTISSLQPEDAATYYCAGGYGGGRYAFGQGTKVEIKRTVAAPSVFIFPPSDEQLKSGTASVVCLLNNFYPREAKVQWKVDNALQSGNSQESVTEQDSKDSTYSLSSTLTLSKADYEKHKVYACEVTHQGLSSPVTKSFNRGEC
notes: copies: 2 + 2

— patent US20200317768A1 (published 2020)
